Target: human GLP-1 receptor (Homo sapiens, UniProt P43220)
Assay: cAMP production assay in CHO cells expressing human GLP-1 receptor
Type: cell-based
Details: for % Max Effect / Potency at huGLP-1R in cAMP assay (M): Table 18; for % Max Effect: maximum activation compared to GLP-1
Description: Low protein binding 384-well plates (Greiner) were used to perform eleven 1 in 4 serial dilutions of test compound that were made in assay medium (0.1% bovine serum albumin in Hanks Balanced Salt Solution (GIBCO or Sigma), containing 0.5 mM IBMX (Sigma)). All sample dilutions were made in duplicate. […] Cells were then re-suspended in assay buffer at the optimized concentration of 1×10^5 cells/mL and dispensed at 5 uL per well to black shallow-well u-bottom 384-well plates (Corning). 5 μL of test compound was transferred from the dilution plate to the cell plate and incubated at room temperature for 30 minutes. cAMP levels were measured the cAMP dynamic 2 HTRF kit (Cisbio), following the two step protocol as per manufacturer's recommendations. Briefly, anti-cAMP cryptate (donor fluorophore) and cAMP-d2 (acceptor fluorophore) were made up separately by diluting each 1/20 in conjugate & lysis buffer provided in the kit. 5 uL of anti-cAMP cryptate was added to all wells of the assay plate and 5 uL of cAMP-d2 added to all wells except non-specific binding wells, to which only conjugate and lysis buffer was added. […] Data was transformed to % Delta F as described in manufacturer's guidelines and analyzed by unconstrained 4-parameter logistic fit of data, curve mid-point to determine EC50.

human GLP-1 receptor, sequence (P43220 24-463): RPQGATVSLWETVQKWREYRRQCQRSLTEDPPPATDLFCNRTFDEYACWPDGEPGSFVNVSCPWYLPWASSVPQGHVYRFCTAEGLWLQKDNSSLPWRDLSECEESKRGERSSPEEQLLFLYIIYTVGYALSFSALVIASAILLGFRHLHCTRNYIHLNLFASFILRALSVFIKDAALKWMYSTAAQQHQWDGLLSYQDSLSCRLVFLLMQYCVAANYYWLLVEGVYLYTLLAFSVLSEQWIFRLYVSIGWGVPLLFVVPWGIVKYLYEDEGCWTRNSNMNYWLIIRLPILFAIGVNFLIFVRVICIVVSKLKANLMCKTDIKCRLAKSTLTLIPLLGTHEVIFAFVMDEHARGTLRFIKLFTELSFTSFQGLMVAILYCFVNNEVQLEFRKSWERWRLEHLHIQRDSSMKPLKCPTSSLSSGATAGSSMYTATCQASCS

| Molecule | x change (Table 13, EC50 relative to GLP1-Fc) | % Max Effect | Potency at huGLP-1R in cAMP assay (M) |
| --- | --- | --- | --- |
| PC9#2_GLP-1_VL: GLP-1 analogue SEQ ID NO:28 fused via linker SEQ ID NO:4 to light chain of PC9#2 (SEQ ID NO: 43) (protein, heavy chain not cited) HGEGTFTSDVSSYLEEQAAKEFIAWLVKGGGGGGGSGGGGSGGGGSADIQMTQSPSSLSASVGDRVTITCKASQDVHTAVAWYQQKPGKAPKLLIYHASYRYTGVPSRFSGSGSGTDFTFTISSLQPEDIATYYCQQRYSLWRTFGQGTKLEIKR | 2.4 | – | – |
| HS9_DSB7_G2Y: HS9_DSB7 with peptide point mutation G2Y; SEQ ID NO: 444 (protein) HYEGTFTSDLSKQMEEECVRLFIEWLKNGGPSSGAPPPGCGGGGGSGGGGSGGGGSADIQMTQSPSSLSASVGDRVTITCQASQDVKTAVAWYQQKPGKAPKLLIYSASYRYTGVPSRFSGSGSGTDFTFTISSLQPEDIATYYCQQRYSLWRTFGQGTKLEIK | – | 10% | – |
| HS9_DSB7_I23A: HS9_DSB7 with peptide point mutation I23A; SEQ ID NO: 460 (protein) HGEGTFTSDLSKQMEEECVRLFAEWLKNGGPSSGAPPPGCGGGGGSGGGGSGGGGSADIQMTQSPSSLSASVGDRVTITCQASQDVKTAVAWYQQKPGKAPKLLIYSASYRYTGVPSRFSGSGSGTDFTFTISSLQPEDIATYYCQQRYSLWRTFGQGTKLEIK | – | 67% | – |
| HS9_DSB7_L26M: HS9_DSB7 with peptide point mutation L26M; SEQ ID NO: 466 (protein) HGEGTFTSDLSKQMEEECVRLFIEWMKNGGPSSGAPPPGCGGGGGSGGGGSGGGGSADIQMTQSPSSLSASVGDRVTITCQASQDVKTAVAWYQQKPGKAPKLLIYSASYRYTGVPSRFSGSGSGTDFTFTISSLQPEDIATYYCQQRYSLWRTFGQGTKLEIK | – | 90% | – |
| HS9_DSB7_I23T: HS9_DSB7 with peptide point mutation I23T; SEQ ID NO: 457 (protein) HGEGTFTSDLSKQMEEECVRLFTEWLKNGGPSSGAPPPGCGGGGGSGGGGSGGGGSADIQMTQSPSSLSASVGDRVTITCQASQDVKTAVAWYQQKPGKAPKLLIYSASYRYTGVPSRFSGSGSGTDFTFTISSLQPEDIATYYCQQRYSLWRTFGQGTKLEIK | – | Inactive | Inactive |
| HS9_DSB7_V19T: HS9_DSB7 with peptide point mutation V19T; SEQ ID NO: 453 (protein) HGEGTFTSDLSKQMEEECTRLFIEWLKNGGPSSGAPPPGCGGGGGSGGGGSGGGGSADIQMTQSPSSLSASVGDRVTITCQASQDVKTAVAWYQQKPGKAPKLLIYSASYRYTGVPSRFSGSGSGTDFTFTISSLQPEDIATYYCQQRYSLWRTFGQGTKLEIK | – | 95% | – |
| HS9_DSB7_G2N: HS9_DSB7 with peptide point mutation G2N; SEQ ID NO: 448 (protein) HNEGTFTSDLSKQMEEECVRLFIEWLKNGGPSSGAPPPGCGGGGGSGGGGSGGGGSADIQMTQSPSSLSASVGDRVTITCQASQDVKTAVAWYQQKPGKAPKLLIYSASYRYTGVPSRFSGSGSGTDFTFTISSLQPEDIATYYCQQRYSLWRTFGQGTKLEIK | – | 31% | – |
| HS9_DSB7_L26P: HS9_DSB7 with peptide point mutation L26P; SEQ ID NO: 463 (protein) HGEGTFTSDLSKQMEEECVRLFIEWPKNGGPSSGAPPPGCGGGGGSGGGGSGGGGSADIQMTQSPSSLSASVGDRVTITCQASQDVKTAVAWYQQKPGKAPKLLIYSASYRYTGVPSRFSGSGSGTDFTFTISSLQPEDIATYYCQQRYSLWRTFGQGTKLEIK | – | 60% | – |
| HS9_DSB7_L26T: HS9_DSB7 with peptide point mutation L26T; SEQ ID NO: 461 (protein) HGEGTFTSDLSKQMEEECVRLFIEWTKNGGPSSGAPPPGCGGGGGSGGGGSGGGGSADIQMTQSPSSLSASVGDRVTITCQASQDVKTAVAWYQQKPGKAPKLLIYSASYRYTGVPSRFSGSGSGTDFTFTISSLQPEDIATYYCQQRYSLWRTFGQGTKLEIK | – | 87% | – |
| HS9_DSB7_L26H: HS9_DSB7 with peptide point mutation L26H; SEQ ID NO: 468 (protein) HGEGTFTSDLSKQMEEECVRLFIEWHKNGGPSSGAPPPGCGGGGGSGGGGSGGGGSADIQMTQSPSSLSASVGDRVTITCQASQDVKTAVAWYQQKPGKAPKLLIYSASYRYTGVPSRFSGSGSGTDFTFTISSLQPEDIATYYCQQRYSLWRTFGQGTKLEIK | – | 87% | – |
| HS9_DSB7_G2I: HS9_DSB7 with peptide point mutation G2I; SEQ ID NO: 449 (protein) HIEGTFTSDLSKQMEEECVRLFIEWLKNGGPSSGAPPPGCGGGGGSGGGGSGGGGSADIQMTQSPSSLSASVGDRVTITCQASQDVKTAVAWYQQKPGKAPKLLIYSASYRYTGVPSRFSGSGSGTDFTFTISSLQPEDIATYYCQQRYSLWRTFGQGTKLEIK | – | 87% | – |
| HS9_DSB7_G2F: HS9_DSB7 with peptide point mutation G2F; SEQ ID NO: 450 (protein) HFEGTFTSDLSKQMEEECVRLFIEWLKNGGPSSGAPPPGCGGGGGSGGGGSGGGGSADIQMTQSPSSLSASVGDRVTITCQASQDVKTAVAWYQQKPGKAPKLLIYSASYRYTGVPSRFSGSGSGTDFTFTISSLQPEDIATYYCQQRYSLWRTFGQGTKLEIK | – | 69% | – |
| HS9_DSB7_G2T: HS9_DSB7 with peptide point mutation G2T; SEQ ID NO: 446 (protein) HTEGTFTSDLSKQMEEECVRLFIEWLKNGGPSSGAPPPGCGGGGGSGGGGSGGGGSADIQMTQSPSSLSASVGDRVTITCQASQDVKTAVAWYQQKPGKAPKLLIYSASYRYTGVPSRFSGSGSGTDFTFTISSLQPEDIATYYCQQRYSLWRTFGQGTKLEIK | – | 73% | – |
| HS9_DSB7_L26N: HS9_DSB7 with peptide point mutation L26N; SEQ ID NO: 464 (protein) HGEGTFTSDLSKQMEEECVRLFIEWNKNGGPSSGAPPPGCGGGGGSGGGGSGGGGSADIQMTQSPSSLSASVGDRVTITCQASQDVKTAVAWYQQKPGKAPKLLIYSASYRYTGVPSRFSGSGSGTDFTFTISSLQPEDIATYYCQQRYSLWRTFGQGTKLEIK | – | 44% | – |
| HS9_DSB7_G2Q: HS9_DSB7 with peptide point mutation G2Q; SEQ ID NO: 447 (protein) HQEGTFTSDLSKQMEEECVRLFIEWLKNGGPSSGAPPPGCGGGGGSGGGGSGGGGSADIQMTQSPSSLSASVGDRVTITCQASQDVKTAVAWYQQKPGKAPKLLIYSASYRYTGVPSRFSGSGSGTDFTFTISSLQPEDIATYYCQQRYSLWRTFGQGTKLEIK | – | 86% | – |
| HS9_DSB7_I23G: HS9_DSB7 with peptide point mutation I23G; SEQ ID NO: 459 (protein) HGEGTFTSDLSKQMEEECVRLFGEWLKNGGPSSGAPPPGCGGGGGSGGGGSGGGGSADIQMTQSPSSLSASVGDRVTITCQASQDVKTAVAWYQQKPGKAPKLLIYSASYRYTGVPSRFSGSGSGTDFTFTISSLQPEDIATYYCQQRYSLWRTFGQGTKLEIK | – | 82% | – |
| HS9_DSB7_V19G: HS9_DSB7 with peptide point mutation V19G; SEQ ID NO: 455 (protein) HGEGTFTSDLSKQMEEECGRLFIEWLKNGGPSSGAPPPGCGGGGGSGGGGSGGGGSADIQMTQSPSSLSASVGDRVTITCQASQDVKTAVAWYQQKPGKAPKLLIYSASYRYTGVPSRFSGSGSGTDFTFTISSLQPEDIATYYCQQRYSLWRTFGQGTKLEIK | – | 93% | – |
| HS9_DSB7_L26Q: HS9_DSB7 with peptide point mutation L26Q; SEQ ID NO: 465 (protein) HGEGTFTSDLSKQMEEECVRLFIEWQKNGGPSSGAPPPGCGGGGGSGGGGSGGGGSADIQMTQSPSSLSASVGDRVTITCQASQDVKTAVAWYQQKPGKAPKLLIYSASYRYTGVPSRFSGSGSGTDFTFTISSLQPEDIATYYCQQRYSLWRTFGQGTKLEIK | – | 34% | – |
| HS9_DSB7_V19S: HS9_DSB7 with peptide point mutation V19S; SEQ ID NO: 454 (protein) HGEGTFTSDLSKQMEEECSRLFIEWLKNGGPSSGAPPPGCGGGGGSGGGGSGGGGSADIQMTQSPSSLSASVGDRVTITCQASQDVKTAVAWYQQKPGKAPKLLIYSASYRYTGVPSRFSGSGSGTDFTFTISSLQPEDIATYYCQQRYSLWRTFGQGTKLEIK | – | 94% | – |
| HS9_DSB7_L26S: HS9_DSB7 with peptide point mutation L26S; SEQ ID NO: 462 (protein) HGEGTFTSDLSKQMEEECVRLFIEWSKNGGPSSGAPPPGCGGGGGSGGGGSGGGGSADIQMTQSPSSLSASVGDRVTITCQASQDVKTAVAWYQQKPGKAPKLLIYSASYRYTGVPSRFSGSGSGTDFTFTISSLQPEDIATYYCQQRYSLWRTFGQGTKLEIK | – | Inactive | Inactive |
| HS9_DSB7_I23S: HS9_DSB7 with peptide point mutation I23S; SEQ ID NO: 458 (protein) HGEGTFTSDLSKQMEEECVRLFSEWLKNGGPSSGAPPPGCGGGGGSGGGGSGGGGSADIQMTQSPSSLSASVGDRVTITCQASQDVKTAVAWYQQKPGKAPKLLIYSASYRYTGVPSRFSGSGSGTDFTFTISSLQPEDIATYYCQQRYSLWRTFGQGTKLEIK | – | Inactive | Inactive |

Reference: patent US10077319B2, “Anti-PCSK9-GLP-1 fusions and methods for use” (MedImmune, LLC, priority 2014, dated 2018)
